Reference: PMC8945619
pKd: −log10 of the molar value.

Molecular target: PECAM-1 (purified, immobilised on the sensor chip) (UniProt P16284)
Test: SPR

recombinant proteinase 3 (rPR3), sequence (P24158 28-248): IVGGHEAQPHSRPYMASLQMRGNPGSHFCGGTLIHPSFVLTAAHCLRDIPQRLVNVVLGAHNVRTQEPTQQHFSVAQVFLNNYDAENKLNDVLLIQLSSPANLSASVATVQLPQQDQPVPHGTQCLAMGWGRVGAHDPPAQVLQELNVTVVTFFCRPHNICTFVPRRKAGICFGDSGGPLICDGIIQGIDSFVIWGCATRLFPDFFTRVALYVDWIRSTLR
soluble CD177 in complex with proteinase 3 (sCD177/PR3), sequence (Q8N6Q3 22-408): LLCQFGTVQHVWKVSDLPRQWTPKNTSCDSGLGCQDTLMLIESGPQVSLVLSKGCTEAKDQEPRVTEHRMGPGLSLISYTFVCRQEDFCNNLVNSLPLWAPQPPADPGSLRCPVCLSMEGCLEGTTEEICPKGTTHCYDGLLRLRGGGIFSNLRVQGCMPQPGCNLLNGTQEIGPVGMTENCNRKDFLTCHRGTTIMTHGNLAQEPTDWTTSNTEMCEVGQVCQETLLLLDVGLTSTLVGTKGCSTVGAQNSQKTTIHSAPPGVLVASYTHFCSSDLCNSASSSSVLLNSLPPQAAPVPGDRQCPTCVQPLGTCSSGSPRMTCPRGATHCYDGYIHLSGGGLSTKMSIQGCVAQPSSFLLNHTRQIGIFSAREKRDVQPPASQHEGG
soluble CD177 in complex with proteinase 3 (sCD177/PR3), sequence (P24158 28-248): as the sequence (P24158 28-248) above

pKd | Substance
8.13 | soluble CD177 in complex with proteinase 3 (sCD177/PR3) (from UniProt Q8N6Q3 22-408; P24158 28-248)
7.30 | recombinant proteinase 3 (rPR3) (from UniProt P24158 28-248) (enzyme)
